# In paper PMC8948244, “Pumilio protects Xbp1 mRNA from regulated Ire1-dependent decay”:
# Columns and labels:
# [1] = molecular target: T1, hPUM1-HD (Pum-HD domain of human PUM1) (Homo sapiens, UniProt Q14671 828-1168); experiment: competition; EMSA; 5x, 10x, 50x excess (source data label: 25x) over biotin-labeled WT probe; no effect; 10 mM Hepes/KOH pH 7.4, 50 mM KCl, 3 mM MgCl2, 1 mM EDTA, 0.1 mg/ml yeast tRNA, 2 mM DTT, 0.01% Tween-20, 0.2 U RNasin, 5% glycerol, 20 µl; 1 h on ice; 6% native gel, 0.5x TBE, room temperature; details: protein: recombinant; single strand
# T1 sequence (Q14671 828-1168): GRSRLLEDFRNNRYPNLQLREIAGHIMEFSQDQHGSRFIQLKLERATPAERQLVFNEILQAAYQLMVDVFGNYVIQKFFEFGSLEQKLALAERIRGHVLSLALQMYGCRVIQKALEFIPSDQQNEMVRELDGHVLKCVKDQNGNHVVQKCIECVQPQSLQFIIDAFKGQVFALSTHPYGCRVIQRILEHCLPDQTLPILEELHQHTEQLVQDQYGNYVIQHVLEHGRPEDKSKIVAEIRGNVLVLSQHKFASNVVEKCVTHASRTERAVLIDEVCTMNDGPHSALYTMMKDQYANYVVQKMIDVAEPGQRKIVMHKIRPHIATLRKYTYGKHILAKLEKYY
# [2] = molecular target: T1, hPUM1-HD (Pum-HD domain of human PUM1); experiment: competition; EMSA; 5x, 10x, 50x excess over biotin-labeled WT probe; shifted band disappeared; 10 mM Hepes/KOH pH 7.4, 50 mM KCl, 3 mM MgCl2, 1 mM EDTA, 0.1 mg/ml yeast tRNA, 2 mM DTT, 0.01% Tween-20, 0.2 U RNasin, 5% glycerol, 20 µl; 1 h on ice; 6% native gel, 0.5x TBE, room temperature; details: protein: recombinant; single strand
# [3] = molecular target: T1, hPUM1-HD (Pum-HD domain of human PUM1); experiment: EMSA; 100-300 nM protein, 10 nM probe; 10 mM Hepes/KOH pH 7.4, 50 mM KCl, 3 mM MgCl2, 1 mM EDTA, 0.1 mg/ml yeast tRNA, 2 mM DTT, 0.01% Tween-20, 0.2 U RNasin, 5% glycerol, 20 µl; 1 h on ice; 6% native gel, 0.5x TBE, room temperature; details: protein: recombinant; label: 3' biotin-TEG; single strand
binder,measurement,setting,value
"GAUAGGCACAACAUAAAUUCAUAAUCG (ssRNA) [pum1site-mut (unlabeled competitor, UGUA to ACAA)]",binding result,[1],no binding
GAUAGGCUGUACAUAAAUUCAUAAUCG (ssRNA) [pum1site-wt (unlabeled competitor)],binding result,[2],binds
GAUAGGCUGUACAUAAAUUCAUAAUCG (ssRNA) [pum1site-wt-3BioTEG (Xbp1 3'UTR PRE1)],binding result,[3],binds
